# System: Escherichia coli TOP10
# Experiment: shrunken log2 fold change of peptide-encoding DNA abundance (4.5 h post-induction vs induction); higher = less antimicrobial activity (less host growth inhibition)
# Details: time post-induction: 4.5 h; library: site-saturation at positions 5, 18, 19, 20
# 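Also: peptides expressed intracellularly from a pBAD plasmid library in pooled LB shake-flask culture, induced with 0.3% L-arabinose, DNA abundance read by NGS, three biological replicates, DESeq2 with apeglm shrinkage.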
row,Sequence,shrunken log2 fold change
1,RRIRRRPPRLPRPRPRPMRSPRP,0.579
2,RRIRERPPRLPRPRPRPRKTPRP,0.318
3,RRIRGRPPRLPRPRPRPECFPRP,1.92
4,RRIRMRPPRLPRPRPRPCPTPRP,0.11
5,RRIRLRPPRLPRPRPRPPWFPRP,0.165
6,RRIRDRPPRLPRPRPRPRHQPRP,0.0533
7,RRIRGRPPRLPRPRPRPALHPRP,0.866
8,RRIRDRPPRLPRPRPRPYVCPRP,0.0261
9,RRIRPRPPRLPRPRPRPWQTPRP,-0.0715
10,RRIRWRPPRLPRPRPRPVDMPRP,-0.0613
11,RRIRWRPPRLPRPRPRPIIDPRP,0.0788
12,RRIRGRPPRLPRPRPRPFPMPRP,0.533
13,RRIRNRPPRLPRPRPRPQFDPRP,0.152
14,RRIRGRPPRLPRPRPRPYGQPRP,0.0682
15,RRIRDRPPRLPRPRPRPPPPPRP,0.899
16,RRIRIRPPRLPRPRPRPINNPRP,-0.751
17,RRIRTRPPRLPRPRPRPRNYPRP,-0.0303
18,RRIRQRPPRLPRPRPRPVPSPRP,-0.0282
19,RRIRHRPPRLPRPRPRPKGGPRP,0.0418
20,RRIRMRPPRLPRPRPRPAYFPRP,-0.197
21,RRIRIRPPRLPRPRPRPTTPPRP,0.552
22,RRIRQRPPRLPRPRPRPWRYPRP,0.0785

row,Sequence,shrunken log2 fold change
1,RRIRARPPRLPRPRPRPWDEPRP,0.379
2,RRIRRRPPRLPRPRPRPPQNPRP,1.4
3,RRIRNRPPRLPRPRPRPDEFPRP,-0.0168
4,RRIRGRPPRLPRPRPRPVDHPRP,0.193
5,RRIRNRPPRLPRPRPRPGMAPRP,0.0313
6,RRIRYRPPRLPRPRPRPSSCPRP,-0.101
7,RRIRERPPRLPRPRPRPFVSPRP,0.176
8,RRIRTRPPRLPRPRPRPMCPPRP,-0.017
9,RRIRFRPPRLPRPRPRPKPVPRP,0.727
10,RRIRERPPRLPRPRPRPDCSPRP,-0.148
11,RRIRARPPRLPRPRPRPYQPPRP,0.589
12,RRIRHRPPRLPRPRPRPARFPRP,0.358
13,RRIRTRPPRLPRPRPRPIETPRP,0.108
14,RRIRFRPPRLPRPRPRPMISPRP,-0.446
15,RRIRARPPRLPRPRPRPWAWPRP,0.239
16,RRIRSRPPRLPRPRPRPENSPRP,-0.0239
17,RRIRTRPPRLPRPRPRPSGNPRP,-0.168
18,RRIRWRPPRLPRPRPRPPNRPRP,0.148
19,RRIRDRPPRLPRPRPRPVRWPRP,1.2
20,RRIRMRPPRLPRPRPRPDKIPRP,0.179
21,RRIRVRPPRLPRPRPRPQEGPRP,-0.15
22,RRIRTRPPRLPRPRPRPCHYPRP,-0.253

row,Sequence,shrunken log2 fold change
1,RRIRGRPPRLPRPRPRPMYEPRP,0.282
2,RRIRTRPPRLPRPRPRPNETPRP,0.0139
3,RRIRHRPPRLPRPRPRPLNGPRP,-0.178
4,RRIRRRPPRLPRPRPRPRHGPRP,0.197
5,RRIRNRPPRLPRPRPRPTADPRP,0.422
6,RRIRRRPPRLPRPRPRPLGFPRP,0.592
7,RRIRRRPPRLPRPRPRPVVKPRP,-0.0155
8,RRIRRRPPRLPRPRPRPCSYPRP,-0.19
9,RRIRHRPPRLPRPRPRPDVQPRP,0.0591
10,RRIRYRPPRLPRPRPRPKLDPRP,-0.351
11,RRIRKRPPRLPRPRPRPVVPPRP,-0.093
12,RRIRRRPPRLPRPRPRPKDVPRP,0.159
13,RRIRVRPPRLPRPRPRPVEVPRP,-0.0382
14,RRIRDRPPRLPRPRPRPRDSPRP,-0.153
15,RRIRERPPRLPRPRPRPHLAPRP,0.101
16,RRIRHRPPRLPRPRPRPDMFPRP,-0.0749
17,RRIRERPPRLPRPRPRPDEPPRP,-0.0946
18,RRIRWRPPRLPRPRPRPAKTPRP,0.0165
19,RRIRVRPPRLPRPRPRPIVDPRP,-0.142
20,RRIRCRPPRLPRPRPRPSRHPRP,-0.33
21,RRIRPRPPRLPRPRPRPYHYPRP,-0.84
22,RRIRNRPPRLPRPRPRPQHHPRP,-0.432

row,Sequence,shrunken log2 fold change
1,RRIRQRPPRLPRPRPRPAGVPRP,-0.102
2,RRIRVRPPRLPRPRPRPEPHPRP,-0.0157
3,RRIRVRPPRLPRPRPRPSDMPRP,-0.519
4,RRIRQRPPRLPRPRPRPCCLPRP,-0.0936
5,RRIRSRPPRLPRPRPRPTDRPRP,0.000994
6,RRIRSRPPRLPRPRPRPNMRPRP,0.43
7,RRIRRRPPRLPRPRPRPGHRPRP,0.192
8,RRIRPRPPRLPRPRPRPSENPRP,-0.0512
9,RRIRSRPPRLPRPRPRPCGYPRP,-0.00214
10,RRIRSRPPRLPRPRPRPAMKPRP,0.00274
11,RRIRKRPPRLPRPRPRPKVWPRP,0.354
12,RRIRFRPPRLPRPRPRPLCPPRP,0.016
13,RRIRIRPPRLPRPRPRPPWCPRP,1.45
14,RRIRGRPPRLPRPRPRPFRYPRP,0.0984
15,RRIRFRPPRLPRPRPRPNMRPRP,0.386
16,RRIRDRPPRLPRPRPRPINDPRP,0.0753
17,RRIRMRPPRLPRPRPRPRCWPRP,0.666
18,RRIRPRPPRLPRPRPRPRRPPRP,0.489
19,RRIRERPPRLPRPRPRPYKLPRP,-1.4
20,RRIRCRPPRLPRPRPRPVGYPRP,0.0595
21,RRIRARPPRLPRPRPRPYCDPRP,-0.425
22,RRIRLRPPRLPRPRPRPRAQPRP,0.423

row,Sequence,shrunken log2 fold change
1,RRIRERPPRLPRPRPRPGSYPRP,-0.868
2,RRIRQRPPRLPRPRPRPAPFPRP,0.613
3,RRIRQRPPRLPRPRPRPTVMPRP,0.0964
4,RRIRCRPPRLPRPRPRPLIFPRP,-0.514
5,RRIRTRPPRLPRPRPRPEPVPRP,0.272
6,RRIRLRPPRLPRPRPRPRNCPRP,-0.51
7,RRIRWRPPRLPRPRPRPLRIPRP,0.148
8,RRIRTRPPRLPRPRPRPQWEPRP,0.0154
9,RRIRCRPPRLPRPRPRPADPPRP,-0.195
10,RRIRERPPRLPRPRPRPYMYPRP,-0.501
11,RRIRYRPPRLPRPRPRPIFCPRP,-0.201
12,RRIRKRPPRLPRPRPRPCERPRP,0.019
13,RRIRYRPPRLPRPRPRPIEMPRP,0.0294
14,RRIRHRPPRLPRPRPRPFKEPRP,-0.289
15,RRIRMRPPRLPRPRPRPNMLPRP,-0.358
16,RRIRFRPPRLPRPRPRPSSSPRP,-0.625
17,RRIRERPPRLPRPRPRPPPMPRP,0.271
18,RRIRFRPPRLPRPRPRPSKAPRP,-0.367
19,RRIRWRPPRLPRPRPRPPMMPRP,0.203
20,RRIRRRPPRLPRPRPRPKDPPRP,0.121
21,RRIRDRPPRLPRPRPRPFPPPRP,-0.113

# — the supplement of paper PMC9112550, “Optimization of the antimicrobial peptide Bac7 by deep mutational scanning” (BMC Biology, 2022)
